Results on 51 variants are retold here after the RNAGym collection of RNA variant scans (doi:10.1101/gr.219683.116).

B1: mRNA-splicing (parent)
chain: AGUUGCUGCUGGGAGCUCCAGCACAGUGAAAUGGACAGAAGGGCAGAGCAA

The variants in the series derive from B1. The series can be described thus: exon inclusion enrichment index; higher = more inclusion; WT1 exon 5 minigene, HEK293.
Take AGUUUCUUUUGGGAGCUCCAGCACAGUGAAAUGGACACGAGGGCAGAGCAA [G5U G8U C9U G38C A39G]: the “exon inclusion enrichment index” value turned out to be 0.136.

Turning to AGUUAGGGAUGGGAGCUCCAAUACAGUGAAAUGGACAGAAGGGCAGAGCAA [G5A C6G U7G C9A G21A C22U], the “exon inclusion enrichment index” value came out at 0.00087.

On to AGUUGACGACGGGAGCUCCAGCACAGUGAAAUGGACAGAAGGAUAGAGCAA [C6A U7C C9A U10C G43A C44U], for which the “exon inclusion enrichment index” value worked out at 3.22.

Consider AGUUACCACCGGGGUCUCCAGCACAGUGAAAUGGACAGAAGGGCAGAGCAA [G5A U7C G8A U10C A14G G15U], for which the “exon inclusion enrichment index” value is 0.925.

For AGUUAGGUCUGGGAGCUCCAGCACAGUGAAAUGGACAGAAGGGCAGAGCAA [G5A C6G U7G G8U], the “exon inclusion enrichment index” value is 0.00501.

AGUUGACGACGGGAGCUCCAGCACAGUGAAAUGGACAGAAGGGCCUAGCAA [C6A U7C C9A U10C A45C G46U]: the “exon inclusion enrichment index” value is 1.54.

On to AGUUAGGGAUGGGAGCUCCAGCACAGUGAAAUUGACAGAAGGGCAGAGCAA [G5A C6G U7G C9A G33U], for which the “exon inclusion enrichment index” value stood at 0.000815.

As to AGUUAUUAAUGGGAGCUCCAGCACAGUGAAAUGGACAGAAGGGCAGAGCAA [G5A C6U G8A C9A], the “exon inclusion enrichment index” value turned out to be 0.0634.

AGUUGCUGCUGGGAGCUCCAGCACAGUGGCAUGGACAGAAGGGCAGAGCAA [A29G A30C]: the “exon inclusion enrichment index” value was 0.0218.

With AGUUCGCGCCGGGAGGACCAGCACAGUGAAAUGGACAGAAGGGCAGAGCAA [G5C C6G U7C U10C C16G U17A], the “exon inclusion enrichment index” value came out at 4.71.

AGUUGCUGCUGGGAGCUCCAGCACAGUGCUAUGGACAGAAGGGCAGAGCAA [A29C A30U]: the “exon inclusion enrichment index” value amounted to 0.0782.

Consider AGUUACCACCGGGAGCUCCAGGACAGUGAAAUGGACAGAAGGGCAGAGCAA [G5A U7C G8A U10C C22G], for which the “exon inclusion enrichment index” value amounted to 3.37.

Take AGUUAGGGAUGGGAGCAACAGCACAGUGAAAUGGACAGAAGGGCAGAGCAA [G5A C6G U7G C9A U17A C18A]: the “exon inclusion enrichment index” value amounted to 0.00127.

Turning to AGUUGCUGCUGGGAGCUCCAGCACAGUGAAAUGGACAGCGGGGCAGAGCAA [A39C A40G], the “exon inclusion enrichment index” value was 0.223.

AGUUAUCAAUGGGAGCUCCAGCACAGUGAAAUGGACAGAAGGGCAGAGCAA [G5A C6U U7C G8A C9A]: the “exon inclusion enrichment index” value turned out to be 0.442.

Consider AGUUCUUCUCGGGAGCCCCAGCACAGUGAAAUGGACAGAAGGGCAGAGCAA [G5C C6U G8C C9U U10C U17C], for which the “exon inclusion enrichment index” value was found to be 1.43.

In the case of AGUUACCACCGGGAGCUCCAGCACAGUGAAAUGGACAGAAGGCCAGAGCAA [G5A U7C G8A U10C G43C], the “exon inclusion enrichment index” value turned out to be 2.52.

As for AGUUGCCGAAGGGAGCUCCAGCACAGUGAAAUGGACAGAAGGGCAGAGCAA [U7C C9A U10A], the “exon inclusion enrichment index” value came out at 1.64.

For the variant AGUAUUAUAUGGGAGCUCCAGCACAGUGAAAUGGACAGAAGGGCAGAGCAA [U4A G5U C6U U7A G8U C9A], the “exon inclusion enrichment index” value was 0.0503.

On to AGUUAGGGAUGGGAGCUCCAGCACAGCCAAAUGGACAGAAGGGCAGAGCAA [G5A C6G U7G C9A U27C G28C], for which the “exon inclusion enrichment index” value amounted to 0.0122.

As to AGUUCGCGCCGGGAGCUCCAGCACAGUGAAAUGGACAUUAGGGCAGAGCAA [G5C C6G U7C U10C G38U A39U], the “exon inclusion enrichment index” value turned out to be 0.22.

Consider AGUUCUUCUCGGGAGCUCCAGCACAGUGAAAUGGACAGAAGUGCAGAGCAA [G5C C6U G8C C9U U10C G42U], for which the “exon inclusion enrichment index” value stood at 2.42.

For the variant AUCUAGGGAUGGGAGCUCCAGCACAGUGAAAUGGACAGAAGGGCAGAGCAA [G2U U3C G5A C6G U7G C9A], the “exon inclusion enrichment index” value is 0.0791.

For the variant AGUUAGGGAUGGGAGCUCCAGCACAGUGAAAUGGAAGGAAGGGCAGAGCAA [G5A C6G U7G C9A C36A A37G], the “exon inclusion enrichment index” value was 0.00191.

With AGGUCACACAGGGAGCUCCAGCACAGUGAAAUGGACAGAAGGGCAGAGCAA [U3G G5C C6A U7C G8A U10A], the “exon inclusion enrichment index” value turned out to be 0.043.

For the variant AGUUGAAGAAGGGAGCUCCAGCGCAGUGAAAUGGACAGAAGGGCAGAGCAA [C6A U7A C9A U10A A23G], the “exon inclusion enrichment index” value was determined as 1.32.

As to AGUUGAAGAAGGGAGCUCCAGCCCAGUGAAAUGGACAGAAGGGCAGAGCAA [C6A U7A C9A U10A A23C], the “exon inclusion enrichment index” value was 0.443.

Turning to AGUUCGCGCCGGGAGCUCCAGCACAGUGAAAUGGCGAGAAGGGCAGAGCAA [G5C C6G U7C U10C A35C C36G], the “exon inclusion enrichment index” value amounted to 2.6.

Take AGUUCUUCUCGGGAGCUCCAGCACAGUGAAAUGGAUAGAAGGGCAGAGCAA [G5C C6U G8C C9U U10C C36U]: the “exon inclusion enrichment index” value is 0.515.

Consider AGUUCUUCUCGGGAGCUCCAGCACAGUGAAAUGGAGAGAAGGGCAGAGCAA [G5C C6U G8C C9U U10C C36G], for which the “exon inclusion enrichment index” value came to 1.32.

Take AGUUCACACAGGGAGCUCCAGCACAGUGAAAUGGACAGAAGCCCAGAGCAA [G5C C6A U7C G8A U10A G42C G43C]: the “exon inclusion enrichment index” value stood at 0.652.

Take AGUUCUUCUCGCCAGCUCCAGCACAGUGAAAUGGACAGAAGGGCAGAGCAA [G5C C6U G8C C9U U10C G12C G13C]: the “exon inclusion enrichment index” value amounted to 0.312.

With AGUUCCCCUCGGGAGCUCCAGCACAGUGAAAUGGACAGAAGGGCAGAGCAA [G5C U7C G8C C9U U10C], the “exon inclusion enrichment index” value came to 0.0413.

With AGUUUCUUUUGGGAGCUCCAGCACAGUGAAAUGGGGAGAAGGGCAGAGCAA [G5U G8U C9U A35G C36G], the “exon inclusion enrichment index” value came to 0.00476.

AGUUAGGGUAGGGAGCUCCAGCACAGUGAAAUGGACAGAAGGGCAGAGCAA [G5A C6G U7G C9U U10A]: the “exon inclusion enrichment index” value was 0.00106.

AGUUGCUGCUGGGCACUCCAGCACAGUGAAAUGGACAGAAGGGCAGAGCAA [A14C G15A]: the “exon inclusion enrichment index” value is 0.0127.

With AGUUCACACAGGGAGCUCCAGCACAGUGAAUGGGACAGAAGGGCAGAGCAA [G5C C6A U7C G8A U10A A31U U32G], the “exon inclusion enrichment index” value was 0.0217.

As to AGUUACUACCGGGAGCUCCAGCACAGUGAAAUGGACAGAAGGGCAGAGCAA [G5A G8A U10C], the “exon inclusion enrichment index” value was 1.77.

In the case of AGUUCACACAGGGAUGUCCAGCACAGUGAAAUGGACAGAAGGGCAGAGCAA [G5C C6A U7C G8A U10A G15U C16G], the “exon inclusion enrichment index” value was 0.018.

Turning to AGUUCGCGCCGGGAGCUCCAGCACAGUGAAAUGGACAGAAUGGCAGAGCAA [G5C C6G U7C U10C G41U], the “exon inclusion enrichment index” value amounted to 3.2.

Regarding AGUUACCACCGGGAGCUCCAGCACAGUGAAACCGACAGAAGGGCAGAGCAA [G5A U7C G8A U10C U32C G33C], the “exon inclusion enrichment index” value came out at 3.24.

In the case of AGUUCGCGCCGGGAGCUCCAGCACAGUGAAAUGGACAGAAGGGCAGUACAA [G5C C6G U7C U10C A47U G48A], the “exon inclusion enrichment index” value turned out to be 3.03.

Take AGUUAUAUAUGGGAACUCCAGCACAGUGAAAUGGACAGAAGGGCAGAGCAA [G5A C6U U7A G8U C9A G15A]: the “exon inclusion enrichment index” value stood at 0.0278.

Consider AGUUCUUCUCGGGAUGUCCAGCACAGUGAAAUGGACAGAAGGGCAGAGCAA [G5C C6U G8C C9U U10C G15U C16G], for which the “exon inclusion enrichment index” value came out at 1.44.

AGUUGCUGCUGGGAGCUCCAUUACAGUGAAAUGGACAGAAGGGCAGAGCAA [G21U C22U]: the “exon inclusion enrichment index” value is 0.89.

Regarding AGUUACCACCGGGAGCUCCAGCACAGUGAAAUGGAACGAAGGGCAGAGCAA [G5A U7C G8A U10C C36A A37C], the “exon inclusion enrichment index” value came out at 2.61.

On to AGUUCGCGCCGGGAGCUCCUCCACAGUGAAAUGGACAGAAGGGCAGAGCAA [G5C C6G U7C U10C A20U G21C], for which the “exon inclusion enrichment index” value was 2.93.

In the case of AGUCACUUUUGGGAGCUCCAGCACAGUGAAAUGGACAGAAGGGCAGAGCAA [U4C G5A G8U C9U], the “exon inclusion enrichment index” value was found to be 0.77.

As for AUUUACCACCGGGAGCUCCAGCACAGUGAAAUGGACAGAAGGGCAGAGCAA [G2U G5A U7C G8A U10C], the “exon inclusion enrichment index” value came to 3.56.

Consider AGUUCGCGCCGGGAGCUCCAGGUCAGUGAAAUGGACAGAAGGGCAGAGCAA [G5C C6G U7C U10C C22G A23U], for which the “exon inclusion enrichment index” value is 1.01.

For the variant AGUUCACACAGGGAGCUCCAGCCCAGUGAAAUGGACAGAAGGGCAGAGCAA [G5C C6A U7C G8A U10A A23C], the “exon inclusion enrichment index” value came out at 0.0903.
